Assay results reported in publication PMC12112095, “Insights into Chemoreceptor MCP2201-Sensing D-Malate” (International Journal of Molecular Sciences, 2025).
Values belong to the compound of their own block, whether it stands above or below them.

What was measured:
[1] = molecular target: MCP2201 LBD mutant T105A (T105A LBD) (Comamonas testosteroni CNB-1); assay: AUC; in the presence of D-malate; Beckman XL-I, 60,000 x g, 7 h, 4 °C
[2] = molecular target: MCP2201 LBD mutant T105A (T105A LBD) (Comamonas testosteroni CNB-1); assay: AUC; in the presence of citrate; Beckman XL-I, 60,000 x g, 7 h, 4 °C
[3] = molecular target: MCP2201 LBD mutant T105A (T105A LBD) (Comamonas testosteroni CNB-1); assay: AUC; ligand-free; Beckman XL-I, 60,000 x g, 7 h, 4 °C
MCP2201 [4] = molecular target: T1, MCP2201 (Comamonas thiooxydans, UniProt A0ABF7PFR0); assay: analytical ultracentrifugation (ligand-induced LBD dimerization); format: binding
T1 construct: gene CtCNB1_2201; LBD (residues 58–203), N-terminal His6-tag
T1 sequence (A0ABF7PFR0 58-203): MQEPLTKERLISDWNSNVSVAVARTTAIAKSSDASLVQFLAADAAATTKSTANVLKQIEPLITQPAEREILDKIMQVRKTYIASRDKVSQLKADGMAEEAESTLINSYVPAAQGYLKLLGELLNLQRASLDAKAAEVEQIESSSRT

MCP2201 [5] = molecular target: T2, MCP2201 (Comamonas thiooxydans, UniProt A0ABF7PFR0, T105A); assay: ITC; format: binding
T2 construct: gene CtCNB1_2201; T105A LBD

[6] = molecular target: ligand-binding domain of MCP2201 (MCP2201 LBD) (Comamonas testosteroni CNB-1); assay: AUC; in the presence of D-malate; Beckman XL-I, 60,000 x g, 7 h, 4 °C
[7] = molecular target: ligand-binding domain of MCP2201 (MCP2201 LBD) (Comamonas testosteroni CNB-1); assay: AUC; ligand-free; Beckman XL-I, 60,000 x g, 7 h, 4 °C
[8] = molecular target: ligand-binding domain of MCP2201 (MCP2201 LBD) (Comamonas testosteroni CNB-1); assay: AUC; in the presence of L-malate; Beckman XL-I, 60,000 x g, 7 h, 4 °C
[9] = molecular target: ligand-binding domain of MCP2201 (MCP2201 LBD) (Comamonas testosteroni CNB-1); assay: ITC; dilution: 1.1 mM protein in 10 mM D-malate, 20 mM Tris pH 7.5, 150 mM NaCl injected into the same buffer, 25 °C; oligomer dissociation model; dimer to monomers
MCP2201 [10] = molecular target: T1, MCP2201; assay: ITC; crystal structure at […] Å; format: binding

stoichiometry N [1]: 2
stoichiometry N [2]: 2
stoichiometry N [3]: 2
Compound: MCP2201 LBD mutant T105A (T105A LBD) (domain or fragment)

Compound: O=C(O)CC(O)C(=O)O (stereo in doubt) [L-malate]
analytical ultracentrifugation (ligand-induced LBD dimerization) (MCP2201 [4]): the D-malate-bound MCP2201 LBD predominately occurred as a dimer, the same as the L-malate-bound LBD (Figure 3B)

Compound: O=C(O)CC(O)(CC(=O)O)C(=O)O [citrate]
Kd (MCP2201 [5]): 670 ± 270 µM

stoichiometry N [6]: 2
stoichiometry N [7]: 2
stoichiometry N [8]: 2
Kd [9]: 0.027 µM
Compound: ligand-binding domain of MCP2201 (MCP2201 LBD) (domain or fragment)

Compound: O=C(O)C[C@@H](O)C(=O)O [D-malate]
Kd (MCP2201 [5]): 5.5 ± 0.01 µM
Kd (MCP2201 [10]): 40 ± 3.3 µM
